Results as given in patent publication US10857209B2, “Lysosomal acid lipase and PPAR gamma ligands as immune therapies for cancer treatment” (Indiana University Research and Technology Corporation, priority 2016, dated 2020).

What was measured:
[1] = tested on: CD11b+Ly6G+, CD4+, CD8+, B220+ cells; test: Flow cytometry of immune cells in organs of LAP-Tg/KO mice; type: in vivo, mouse
Description: Single-cell suspensions from the bone marrow, spleen, blood, liver, and lung were prepared and analyzed as described in Qu et al., Am J Pathol 2009, 174:944-956; Qu et al., Am J Pathol 2010, 176:2394-2404; Qu et al., J Immunol 2009, 182:1648-1659). Approximately 1×10^6 cells from various organs were blocked with FcR blocking antibodies in flow cytometry buffer (BD Biosciences, San Jose, Calif.) followed by incubation with isotype control or surface specific primary antibodies. Anti-CD11b (M1/70) PE-Cyanine7, anti-Ly6G (RB6-8c5) allophycocyanin-eFluor 780, anti-CD4 fluorescein isothiocyanate, anti-CD8 […], and anti-B220 allophycocyanin were purchased from e-Biosciences (San Diego, Calif.). Cells were analyzed on a LSRII machine (BD Biosciences). Data were analyzed using the BD FACStation software (CellQuest Pro version 2.2.1, BD Bio-sciences). The total gated number of positive cells (approximately 30,000 events) was calculated as the percentage of total gated viable cells. Quadrants were assigned using isotype control monoclonal antibody.

CD4+ T cells = test: T cell proliferation assay with BALF cells of CCSP-Tg/KO mice; type: cell-based, mouse; settings: BALF cells from doxycycline-treated CCSP-Tg/KO mice; BALF cells:CD4+ T cells 1:5, 4 days
Description: To determine the immunosuppressive effects of BALF cells, BALF was harvested by PBS. After the centrifugation, the resulting cell pellets were collected and used. CD4^+ T cells were prepared and CFSE labeled as we previously described (15). Labeled CD4^+ T cells were co-cultured with BALF cells in 96-well plates pre-coated with anti-CD3 monoclonal antibody (mAb) (2 μg/mL) and anti-CD28 mAb (5 μg/mL) at 37° C., 5% CO2 for 4 days. The ratio of BALF cells:CD4^+ T cells was 1:5. Proliferation of CD4^+ T cells was evaluated as CFSE dilution by FACS.

[2] = doxycycline-untreated LAP-Tg/KO triple mice (hLAL on)

B1: hLAL: human lysosomal acid lipase expressed from a doxycycline-controlled tissue-specific transgene in lal−/− mice; never administered as a protein (protein)
chain: GPKPVVFLQHGLLADSSNWVTNLANSSLGFILADAGFDVWMGNSRGNTWSRKHKTLSVSQDEFWAFSYDEMAKYDLPASINFILNKTGQEQVYYVGHSQGTTIGFIAFSQIPELAKRIKMFFALGPVASVAFCTSPMAKLGRLPDHLIKDLFGDKEFLPQSAFLKWLGTHVCTHVILKELCGNLCFLLCGFNERNLNMSRVDVYTTHSPAGTSVQNMLHWSQAVKFQKFQAFDWGSSAKNYFHYNQSYPPTYNVKDMLVPTAVWSGGHDWLADVYDVNILLTQITNLVFHESIPEWEHLDFIWGLDAPWRLYNKIINLMRKYQ
modifications: left off: small tags and cut ends
notes: human lysosomal acid lipase expressed from a doxycycline-controlled tissue-specific transgene in lal−/− mice; never administered as a protein
- CD11b+Ly6G+ cell expansion in blood, spleen, lung, bone marrow [1, 2]: reduction of CD11b^+Ly6G^+ cell expansion was also observed in the blood, spleen, and lung, but not in the bone marrow
- percentage and total number of CD11b+Ly6G+ cells in the liver [1, 2]: decreased to the levels of wild-type mice
- CD4+ T cells in blood, lung and spleen ([1]; hepatocyte-specific expression, LAP-Tg/KO triple mice): increased CD4^+ T cells
- inhibition of T cell proliferation by BALF cells (CD4+ T cells): reduced inhibition on T cell proliferation
